Laboratory results published in PMC11844742, “Structural basis of aquaporin-4 autoantibody binding in neuromyelitis optica” (Science Advances, 2025).
Several values for one entry are separate records, joined by “and”; a condition that tells them apart may be missing. Equal entries are not always repeated.

What was measured:
Conditions in all cases: both partners purified
[1] = target: T1, human aquaporin-4 (AQP4) isoform M1, full length, tetramer in detergent (human, UniProt P55087-1); assay: cryo-EM structure; AQP4 in detergent, 18 uM, mixed with ~75 uM Fab186; ~12 uM AQP4 on grids; no symmetry imposed; 2.9 A
T1 construct: aquaporin-4, human, isoform M1, full length (residues 1 to 323); synthesized gene in pPICZ; The purification protocol says the N-terminal tag was cleaved by thrombin; also called AQP4 M1; AQP4 in detergent; source: Pichia pastoris X-33 (strain MG3), purified in DDM (Ni-NTA, thrombin cleavage, cobalt resin, SEC Superdex 200); not shown: 8xHis, N-terminal, cleaved
T1 sequence (P55087 whole entry, the tested form may be a part, canonical isoform): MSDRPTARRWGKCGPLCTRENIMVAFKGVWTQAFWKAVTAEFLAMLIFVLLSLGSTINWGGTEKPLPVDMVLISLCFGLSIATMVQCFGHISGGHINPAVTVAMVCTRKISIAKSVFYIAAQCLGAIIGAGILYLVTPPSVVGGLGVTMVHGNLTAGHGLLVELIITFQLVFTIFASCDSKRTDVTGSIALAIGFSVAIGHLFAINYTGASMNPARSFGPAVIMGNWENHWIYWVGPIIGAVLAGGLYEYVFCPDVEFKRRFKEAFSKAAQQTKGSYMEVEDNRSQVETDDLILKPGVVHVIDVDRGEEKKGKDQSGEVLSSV

[2] = target: T2, human aquaporin-4 (AQP4) isoform M1, full length, tetramer in MSP1E3D1 lipid nanodiscs (human, UniProt P55087-1); assay: cryo-EM 2D classification; AQP4 M1 in nanodiscs mixed with 30-fold molar excess of Fab186; severe orientation bias, no high-resolution map
T2 construct: aquaporin-4, human, isoform M1, full length (residues 1 to 323); synthesized gene in pPICZ; a thrombin cleavage site lies between the tags and the protein; Homo-tetramer embedded in a nanodisc (soybean polar lipids, MSP1E3D1); for BLI the MSP 1E3D1 was biotinylated; also called AQP4 M1; M1 tetramer; not shown: 8xHis, N-terminal, kept
T2 sequence (P55087 whole entry, the tested form may be a part, canonical isoform): as above

[3] = target: T2, human aquaporin-4 (AQP4) isoform M1, …; assay: cryo-EM structure; AQP4 M1 in nanodiscs (0.3 uM) mixed with ~5-fold molar excess of Fab58; no symmetry imposed; 2.5 A

| Binder | stoichiometry N [1] | stoichiometry N [2] | stoichiometry N [3] |
| --- | --- | --- | --- |
| Fab186, Fab fragment of patient-derived NMO recombinant antibody rAb186 (Fab, V domains shown, heavy chain (HC) of Fab186 in the deposited model PDB 8V9D; light chain (LC) of Fab186 in the deposited model PDB 8V9D; also called rAB186 Fab; source: rAb186 IgG from Expi293F (MabSelect purified), papain cleavage (Pierce Fab kit), Fc removed with Protein A agarose) VH: QVQLQESGPGLVKPSQTLPLTCTVSGGYISSGSHQWGWIRQPAGKGLEWIGRIYTSGSTNYNPSLKSRVTISVDTSKNQFSLKLSSVTAADTAVYYCARVNYDLLTGRANFFDPWGQGTPVTVSS VL: EIVLTQSPGTLSLSPGERATLSCRASQSVSSRSVAWYQQKPGQAPRLLIYGASNRATGIPDRFSGSGSGTDFTLTISRLEPEDFVVFYCQQYGSSPLTFGGGTKVEIK | ≤ 4 Fab per AQP4 tetramer and 3 Fab per AQP4 tetramer | 4 Fab per AQP4 tetramer |  |
| Fab58, Fab fragment of patient-derived NMO recombinant antibody rAb58 (Fab, V domains shown, heavy chain (HC) of Fab58 in the deposited model PDB 8V91; light chain (LC) of Fab58 in the deposited model PDB 8V91; also called rAB58 Fab; source: rAb58 IgG from Expi293F (MabSelect purified), papain cleavage (Pierce Fab kit), Fc removed with Protein A agarose) VH: QVQLVESGGGLVQPGGSLRLSCAASGFTFRGYAMNWVRQAPGKGLEWVASISGSGSITQYADSAKGRFTITRDNSKSTLYAHVSSLRADDTAVYYCAKGDYVFDYWGQGTLVTVSS VL: DIQMTQSPSALSASVGDTVTITCRASQSIRSWLAWYQQKPGKAPKLLIYKASDLQSGVPSRFSGSGSGTDFTLTISGLQPDDFATYYCQHYNSYPYTFGQGTKVEIR |  |  | 1 Fab per AQP4 tetramer |
